Laboratory results as given in the supplement of paper PMC5998384.

Tests used:
HeLa Kyoto [1] = test: solubility in G1/S (NP-40 vs SDS abundance) (log2 ratio); higher = more soluble; settings: cell cycle stage: G1/S
HeLa Kyoto [2] = test: melting temperature (median over replicates), in situ; higher = more thermally stable
HeLa Kyoto [3] = test: solubility change mitosis vs G1/S (difference of NP-40 vs SDS log2 ratios) (log2 ratio difference); higher = more soluble in mitosis
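Wherever melting temperature (median over replicates), in situ is given: HeLa Kyoto cells synchronized by double thymidine or nocodazole block, proteins quantified by TMT10plex mass spectrometry, three independent biological replicates.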
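Wherever solubility change mitosis vs G1/S (difference of NP-40 vs SDS log2 ratios) is given: synchronized HeLa Kyoto cells (double thymidine block for G1/S, nocodazole release for mitosis), protein amounts in NP-40 versus SDS lysates quantified by mass spectrometry, three biological replicates.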
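Wherever solubility in G1/S (NP-40 vs SDS abundance) is given: HeLa Kyoto cells arrested at G1/S by double thymidine block, proteins quantified by TMT10plex mass spectrometry in mild NP-40 versus SDS extracts, three biological replicates.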

| Sequence | solubility in G1/S (log2) (HeLa Kyoto [1]) | melting temperature (HeLa Kyoto [2]; cell cycle stage: G1/S) [°C] | melting temperature (HeLa Kyoto [2]; cell cycle stage: mitosis) [°C] | solubility change mitosis (log2) (HeLa Kyoto [3]) |
| --- | --- | --- | --- | --- |
| MSSPMPDCTSKCRSLKHALDVLSVVTKGSENQIKAFLSSHCYNAATIKDVFGRNALHLVSSCGKKGVLDWLIQKGVDLLVKDKESGWTALHRSIFYGHIDCVWSLLKHGVSLYIQDKEGLSALDLVMKDRPTHVVFKNTDPTDVYTWGDNTNFTLGHGSQNSKHHPELVDLFSRSGIYIKQVVLCKFHSVFLSQKGQVYTCGHGPGGRLGHGDEQTCLVPRLVEGLNGHNCSQVAAAKDHTVVLTEDGCVYTFGLNIFHQLGIIPPPSSCNVPRQIQAKYLKGRTIIGVAAGRFHTVLWTREAVYTMGLNGGQLGCLLDPNGEKCVTAPRQVSALHHKDIALSLVAASDGATVCVTTRGDIYLLADYQCKKMASKQLNLKKVLVSGGHMEYKVDPEHLKENGGQKICILAMDGAGRVFCWRSVNSSLKQCRWAYPRQVFISDIALNRNEILFVTQDGEGFRGRWFEEKRKSSEKKEILSNLHNSSSDVSYVSDINSVYERIRLEKLTFAHRAVSVSTDPSGCNFAILQSDPKTSLYEIPAVSSSSFFEEFGKLLREADEMDSIHDVTFQVGNRLFPAHKYILAVHSDFFQKLFLSDGNTSEFTDIYQKDEDSAGCHLFVVEKVHPDMFEYLLQFIYTDTCDFLTHGFKPRIHLNKNPEEYQGTLNSHLNKVNFHEDDNQKSAFEVYKSNQAQTVSERQKSKPKSCKKGKNIREDDPVRMLQTVAKKFDFSNLSSRLDGVRFENEKINVIAKNTGNKLKLSQKKCSFLCDVTMKSVDGKEFPCHKCVLCARLEYFHSMLSSSWIEASSCAALEMPIHSDILKVILDYLYTDEAVVIKESQNVDFICSVLVVADQLLITRLKEICEVALTEKLTLKNAAMLLEFAAMYSAKQLKLSCLQFIGLNMAALLEARSLDVLSDGVLKDLSEFYRKMIPAMDRRVITPYQDGPDISYLEVEDGDIFLKEEINMEQNHSETMFKKAKTKAKKKPRKRSDSSGGYNLSDIIQSPSSTGLLKSGKTNSVESLPELLTSDSEGSYAGVGSPRDLQSPDFTTGFHSDKIEAKVKPYVNGTSPVYSREDLKPWEKSPILKISAPQPIPSNRIDTTSSASWVAGSFSPVSPPVVDLRTIMEIEESRQKCGATPKSHLGKTVSHGVKLSQKQRKMIALTTKENNSGMNSMETVLFTPSKAPKPVNAWASSLHSVSSKSFRDFLLEEKKSVTSHSSGDHVKKVSFKGIENSQAPKIVRCSTHGTPGPEGNHISDLPLLDSPNPWLSSSVTAPSMVAPVTFASIVEEELQQEAALIRSREKPLALIQIEEHAIQDLLVFYEAFGNPEEFVIVERTPQGPLAVPMWNKHGC [IBTK] | -0.61 | 52.7 | 50.8 | 0.351 |
| MSSSSSSPRETYEEDREYESQAKRLKTEEGEIDYSAEEGENRREATPRGGGDGGGGGRSFSQPEAGGSHHKVSVSPVVHVRGLCESVVEADLVEALEKFGTICYVMMMPFKRQALVEFENIDSAKECVTFAADEPVYIAGQQAFFNYSTSKRITRPGNTDDPSGGNKVLLLSIQNPLYPITVDVLYTVCNPVGKVQRIVIFKRNGIQAMVEFESVLCAQKAKAALNGADIYAGCCTLKIEYARPTRLNVIRNDNDSWDYTKPYLGRRDRGKGRQRQAILGEHPSSFRHDGYGSHGPLLPLPSRYRMGSRDTPELVAYPLPQASSSYMHGGNPSGSVVMVSGLHQLKMNCSRVFNLFCLYGNIEKVKFMKTIPGTALVEMGDEYAVERAVTHLNNVKLFGKRLNVCVSKQHSVVPSQIFELEDGTSSYKDFAMSKNNRFTSAGQASKNIIQPPSCVLHYYNVPLCVTEETFTKLCNDHEVLTFIKYKVFDAKPSAKTLSGLLEWECKTDAVEALTALNHYQIRVPNGSNPYTLKLCFSTSSHL [HNRPLL] | -0.0931 | 47.6 | 49.7 | -0.0114 |
| MSVAGLKKQFHKATQKVSEKVGGAEGTKLDDDFKEMERKVDVTSRAVMEIMTKTIEYLQPNPASRAKLSMINTMSKIRGQEKGPGYPQAEALLAEAMLKFGRELGDDCNFGPALGEVGEAMRELSEVKDSLDIEVKQNFIDPLQNLHDKDLREIQHHLKKLEGRRLDFDYKKKRQGKIPDEELRQALEKFDESKEIAESSMFNLLEMDIEQVSQLSALVQAQLEYHKQAVQILQQVTVRLEERIRQASSQPRREYQPKPRMSLEFPTGDSTQPNGGLSHTGTPKPSGVQMDQPCCRALYDFEPENEGELGFKEGDIITLTNQIDENWYEGMLHGHSGFFPINYVEILVALPH [SH3GL2] | 0.586 | 48.7 | 49.2 | -0.159 |
| MSVHYTLNLRVFWPLVTGLCTALVCLYHVLRGSGGARAEPADGVDGGFPLLKVAVLLLLSYVLLRCRHAVRQRFLPGSPRLEGHAAFSSRHFREPGLSILLESYYEHEVRLSPHVLGHSKAHVSRIVGELVRAGRARGSPGLIPGGALALAFRGDFIQVGSAYEQHKIRRPDSFDVLVPLRLPPLVALEPRSLGEEPALAPAFRGCFLCALKAPPSPSGASGGHWLRDCKPFADAFCVDVRGRRHLSATLVLRWFQSHLQRSLATVRYSLEGRCRVTLTPGGLEQPPTLHILPCRTDYGCCRLSMAVRLIPAVHLGDGVFLVAPPPPPLPSAPLLELPEGLRAEALWGVNTARQEQKLLSWLQERAAPGACYLKCLQLLKALRDLGARGLDSAAATQWGRILSSYVLKTVLLAVLLRKGAPGQGWDEEHLGRCLEELVQFLRDCLLRRHTLFHCVLGPGGAAAEVGPLPKALREAAPVDLLAAFDGHARELAAARLLSTWQRLPQLLRAYGGPRYLARCPPPRSQRTQGFLEGEP [ITPRIPL2] | -0.164 | 53.8 | 55.4 | 0.00884 |
| MSVQSSSGSLEGPPSWSQLSTSPTPGSAAAARSLLNHTPPSGRPREGAMDELHSLDPRRQELLEARFTGVASGSTGSTGSCSVGAKASTNNESSNHSFGSLGSLSDKESETPEKKQSESSRGRKRKAENQNESSQGKSIGGRGHKISDYFEYQGGNGSSPVRGIPPAIRSPQNSHSHSTPSSSVRPNSPSPTALAFGDHPIVQPKQLSFKIIQTDLTMLKLAALESNKIQDLEKKEGRIDDLLRANCDLRRQIDEQQKLLEKYKERLNKCISMSKKLLIEKSTQEKLSSREKSMQDRLRLGHFTTVRHGASFTEQWTDGFAFQNLVKQQEWVNQQREDIERQRKLLAKRKPPTANNSQAPSTNSEPKQRKNKAVNGAENDPFVRPNLPQLLTLAEYHEQEEIFKLRLGHLKKEEAEIQAELERLERVRNLHIRELKRINNEDNSQFKDHPTLNERYLLLHLLGRGGFSEVYKAFDLYEQRYAAVKIHQLNKSWRDEKKENYHKHACREYRIHKELDHPRIVKLYDYFSLDTDTFCTVLEYCEGNDLDFYLKQHKLMSEKEARSIVMQIVNALRYLNEIKPPIIHYDLKPGNILLVDGTACGEIKITDFGLSKIMDDDSYGVDGMDLTSQGAGTYWYLPPECFVVGKEPPKISNKVDVWSVGVIFFQCLYGRKPFGHNQSQQDILQENTILKATEVQFPVKPVVSSEAKAFIRRCLAYRKEDRFDVHQLANDPYLLPHMRRSNSSGNLHMAGLTASPTPPSSSIITY [TLK1] | 0.061 | 50.1 | 53.3 | -0.0453 |
